Test results: patent US20090092595A1, “Suppression of sPLA2-integrin binding for treating an inflammatory condition” (REGENTS OF THE UNIVERSITY OF CALIFORNIA, priority 2007, published 2009)

Columns and labels:
[1] = target: T1, integrin αvβ3 (Homo sapiens, UniProt P05106+P06756); assay: Surface plasmon resonance study of sPLA2-IIA binding to immobilized soluble integrin αvβ3; settings: SPR, soluble αvβ3 immobilized on sensor chip, 1 mM Mn2+; listed as human sPLA2-IIA
T1 construct: Recombinant soluble αvβ3 was synthesized as previously described; made in house
T1 sequence (P06756 31-992 limits assumed): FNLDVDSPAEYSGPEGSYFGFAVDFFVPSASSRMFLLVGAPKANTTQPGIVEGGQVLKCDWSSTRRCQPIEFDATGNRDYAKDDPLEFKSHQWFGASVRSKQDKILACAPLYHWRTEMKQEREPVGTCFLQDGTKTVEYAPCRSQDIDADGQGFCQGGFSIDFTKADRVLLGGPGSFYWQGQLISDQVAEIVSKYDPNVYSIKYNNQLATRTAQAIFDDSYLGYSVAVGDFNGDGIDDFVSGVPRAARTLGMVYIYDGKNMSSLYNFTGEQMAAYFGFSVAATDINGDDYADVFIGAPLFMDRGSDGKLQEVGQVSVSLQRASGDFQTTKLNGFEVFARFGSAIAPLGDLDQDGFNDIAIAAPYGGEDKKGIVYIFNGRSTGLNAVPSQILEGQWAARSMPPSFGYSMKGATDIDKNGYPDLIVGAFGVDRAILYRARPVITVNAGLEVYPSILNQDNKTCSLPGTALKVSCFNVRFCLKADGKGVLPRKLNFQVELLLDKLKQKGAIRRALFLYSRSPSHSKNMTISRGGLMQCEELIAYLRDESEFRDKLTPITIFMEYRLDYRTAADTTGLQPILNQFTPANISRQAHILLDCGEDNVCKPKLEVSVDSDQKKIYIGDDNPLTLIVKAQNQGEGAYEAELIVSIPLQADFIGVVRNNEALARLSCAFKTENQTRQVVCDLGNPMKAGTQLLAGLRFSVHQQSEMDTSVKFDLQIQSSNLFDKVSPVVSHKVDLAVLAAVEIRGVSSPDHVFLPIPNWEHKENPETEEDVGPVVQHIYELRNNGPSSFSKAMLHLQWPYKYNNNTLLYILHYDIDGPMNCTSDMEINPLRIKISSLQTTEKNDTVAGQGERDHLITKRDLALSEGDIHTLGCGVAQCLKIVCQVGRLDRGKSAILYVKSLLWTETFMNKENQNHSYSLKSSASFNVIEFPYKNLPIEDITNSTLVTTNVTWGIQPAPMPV
T1 sequence (P05106 27-718 limits assumed): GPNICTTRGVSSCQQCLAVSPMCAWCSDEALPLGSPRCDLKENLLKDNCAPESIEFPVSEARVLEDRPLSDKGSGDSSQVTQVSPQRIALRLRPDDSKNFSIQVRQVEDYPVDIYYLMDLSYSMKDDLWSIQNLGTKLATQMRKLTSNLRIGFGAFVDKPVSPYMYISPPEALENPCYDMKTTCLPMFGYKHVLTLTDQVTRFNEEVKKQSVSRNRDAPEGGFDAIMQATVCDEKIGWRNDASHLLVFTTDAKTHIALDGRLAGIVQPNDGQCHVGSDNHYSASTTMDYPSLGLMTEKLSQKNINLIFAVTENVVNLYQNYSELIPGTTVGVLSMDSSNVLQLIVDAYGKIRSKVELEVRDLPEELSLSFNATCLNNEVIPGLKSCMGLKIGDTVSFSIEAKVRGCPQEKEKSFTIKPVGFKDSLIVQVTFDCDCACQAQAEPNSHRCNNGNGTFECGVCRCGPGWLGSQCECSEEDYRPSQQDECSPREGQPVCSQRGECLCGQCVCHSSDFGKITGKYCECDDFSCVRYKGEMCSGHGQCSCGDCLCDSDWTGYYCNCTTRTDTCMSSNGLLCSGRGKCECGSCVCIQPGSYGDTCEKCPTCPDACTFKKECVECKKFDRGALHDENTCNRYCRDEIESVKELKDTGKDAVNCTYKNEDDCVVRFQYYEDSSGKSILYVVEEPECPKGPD
Description: Surface plasmon resonance study Recombinant soluble integrin αvβ3 was immobilized to Biacore Sensor chip CM5 (Biacore, Piscataway, N.J.) by the standard amine coupling method. Two-fold serial diluted sPLA2-IIA and its mutants R74E/R100E (ranging from 2 nM to 500 pM) and H47Q (ranging from 4 nM to 1 nM) in running buffer HBS-P buffer containing 1 mM of Mn^2+ were injected for 3 min at the flow rate of 50 μL/min. Then the sensor chip was washed with the running buffer alone at the same flow rate for another 5 min (the dissociation phase). Two consecutive one-minute injections of 0.5 M, pH 8 EDTA solution at the same flow rate were used to regenerate the chip for another cycle of injection. The resonance unit elicited from the reference flow cell was subtracted from the resonance unit elicited from the integrin flow cell to eliminate the non-specific protein-flow cell interaction and the bulk refractive index effect. The recorded binding curves were fitted with the “1:1 binding with drifting baseline model” by using the Biaevaluation Version 4.1.

[2] = target: T2, soluble integrin αvβ3 (Homo sapiens, UniProt P05106+P06756); assay: Binding of soluble αvβ3 to immobilized sPLA2-IIA (ELISA-type assay); settings: immobilized protein, 20 μg/ml coating
T2 construct: Recombinant soluble αvβ3 was synthesized as previously described; made in house
T2 sequence (P06756 31-992 limits assumed): as the sequence (P06756 31-992 limits assumed) above
T2 sequence (P05106 27-718 limits assumed): as the sequence (P05106 27-718 limits assumed) above
Description: Binding of soluble αvβ3 to immobilized sPLA2-IIA sPLA2-IIA was immobilized to wells of 96 well microtiter plates and the remaining protein-binding sites were blocked by BSA as described (Mori, S. et al., J Biol Chem, 283:18066-18075 (2008)). Soluble recombinant αvβ3 at 5 μg/ml in Hepes-Tyrodes buffer supplemented with 1 mM MnCl2 was added to the well and incubated for 2 h. Bound αvβ3 was measured using anti-integrin β3 (mAb AV-10) followed by HRP-conjugated goat anti-mouse IgG and peroxidase substrates.

[3] = tested on: U937 human monocytic lymphoma cells; assay: Proliferation of U937 cells (MTS assay); format: cell-based; settings: serum-starved 48 h, treated 48 h
Description: U937 cells (αvβ3+, α4β1+) were plated in wells of 96-well plates (10,000 cells/well), and serum-starved for 48 h. After treatment with wt or mutant sPLA2-IIA for 48 h, we measured cell proliferation by MTS assays. […] U937 cells were serum-starved for 24 h, and stimulated with wt and mutant sPLA2-IIA (0.5 μg/ml) for 10 min at 37° C. Cell lysates were analyzed by western blotting with anti-phospho ERK1/2 or anti-ERK1/2 antibodies. The blot is representative of three independent experiments.
Cell proliferation and MAP kinase activation K562 cells and human monocytic lymphoma U937 cells were maintained in RPM11640 medium supplemented with 10% FCS. Cells were plated in 96-well plates (1×10^4 cells/well), and serum-starved for 48 h at 37° C. in 5% CO2 atmosphere. Cells were then treated with or without sPLA2-IIA in medium without serum for 48 h. Cell proliferation was determined by MTS assays using the Aqueous Cell Proliferation Assay Kit (Promega). For MAP kinase activation assays, cells were serum starved in RPMI1640 medium supplemented with 0.4% FCS for 24 h, and stimulated with Wt and mutant sPLA2-IIA (0.5 μg/ml) for 10 min at 37° C. ERK1/2 activation was measured as described (Mori, S. et al., J Biol Chem, in press (2008)).

[4] = target: T3, integrin α4β1 (Homo sapiens, UniProt P05556+P13612); assay: Adhesion of α4-K562 cells (recombinant α4β1) to immobilized sPLA2-IIA; format: cell-based; settings: compared with mock-transfected K562 cells
T3 construct: K562 cells have endogenous α5β1; expressed in transfected cells; host or cells: K562
T3 sequence (P13612 34-1032): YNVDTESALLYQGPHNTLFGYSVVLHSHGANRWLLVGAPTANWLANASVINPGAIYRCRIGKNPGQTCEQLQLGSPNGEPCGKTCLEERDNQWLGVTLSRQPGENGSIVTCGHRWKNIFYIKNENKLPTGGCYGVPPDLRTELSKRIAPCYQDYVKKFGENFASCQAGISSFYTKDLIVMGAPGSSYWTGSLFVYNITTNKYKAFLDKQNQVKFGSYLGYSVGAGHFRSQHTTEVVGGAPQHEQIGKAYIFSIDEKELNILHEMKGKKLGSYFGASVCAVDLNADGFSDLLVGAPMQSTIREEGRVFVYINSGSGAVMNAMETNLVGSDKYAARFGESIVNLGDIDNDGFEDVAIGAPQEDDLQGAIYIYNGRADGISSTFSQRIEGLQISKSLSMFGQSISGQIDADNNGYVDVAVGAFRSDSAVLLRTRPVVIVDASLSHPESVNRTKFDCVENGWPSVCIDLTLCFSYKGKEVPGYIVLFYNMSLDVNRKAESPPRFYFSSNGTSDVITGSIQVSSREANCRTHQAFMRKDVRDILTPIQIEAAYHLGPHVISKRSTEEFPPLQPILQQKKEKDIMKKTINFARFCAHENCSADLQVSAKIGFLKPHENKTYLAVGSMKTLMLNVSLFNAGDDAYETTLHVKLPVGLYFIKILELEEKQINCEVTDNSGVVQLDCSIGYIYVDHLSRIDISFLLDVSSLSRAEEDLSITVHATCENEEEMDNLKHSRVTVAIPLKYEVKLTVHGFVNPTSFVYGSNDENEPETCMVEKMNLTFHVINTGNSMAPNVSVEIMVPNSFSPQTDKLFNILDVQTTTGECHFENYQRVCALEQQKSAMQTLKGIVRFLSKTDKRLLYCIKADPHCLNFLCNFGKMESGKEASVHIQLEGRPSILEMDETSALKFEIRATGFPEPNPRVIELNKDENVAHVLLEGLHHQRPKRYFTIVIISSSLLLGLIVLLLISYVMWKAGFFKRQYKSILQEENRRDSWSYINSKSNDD
T3 sequence (P05556 21-798): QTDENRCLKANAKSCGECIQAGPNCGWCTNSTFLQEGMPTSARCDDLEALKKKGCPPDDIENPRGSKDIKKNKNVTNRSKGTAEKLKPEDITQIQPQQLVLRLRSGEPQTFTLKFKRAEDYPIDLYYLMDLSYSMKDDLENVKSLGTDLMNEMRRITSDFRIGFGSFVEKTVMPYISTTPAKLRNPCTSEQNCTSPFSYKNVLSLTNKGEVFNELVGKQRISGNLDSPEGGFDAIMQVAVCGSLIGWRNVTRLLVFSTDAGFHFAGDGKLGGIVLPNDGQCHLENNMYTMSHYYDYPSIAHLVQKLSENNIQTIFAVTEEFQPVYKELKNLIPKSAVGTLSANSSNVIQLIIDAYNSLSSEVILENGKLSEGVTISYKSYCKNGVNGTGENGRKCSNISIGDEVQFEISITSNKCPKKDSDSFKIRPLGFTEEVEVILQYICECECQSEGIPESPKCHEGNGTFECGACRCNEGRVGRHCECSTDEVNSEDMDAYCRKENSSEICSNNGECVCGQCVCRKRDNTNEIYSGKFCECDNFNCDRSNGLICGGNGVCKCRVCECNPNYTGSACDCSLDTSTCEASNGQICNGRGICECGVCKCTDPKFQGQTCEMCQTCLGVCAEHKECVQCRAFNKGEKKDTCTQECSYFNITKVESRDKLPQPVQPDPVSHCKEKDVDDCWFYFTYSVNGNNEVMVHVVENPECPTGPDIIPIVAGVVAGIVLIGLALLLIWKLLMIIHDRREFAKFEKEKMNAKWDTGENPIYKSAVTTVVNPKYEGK
Description: (§1) FIG. 5. sPLA2-IIA binding to integrin α4β1. a) Cells expressing recombinant α4β1 adhered to wt sPLA2-IIA better than cells expressing other recombinant integrins. We used transfected K562 cells clonally express different human integrins for adhesion assays. Low background adhesion to BSA was subtracted. […] Wells of 96-well microtiter plate were coated with VCAM-1 and FN-GST, and incubated with U937 cells (1×10^4 cells/plate) in the presence of the increasing concentrations of sPLA2-IIA for 1 h at 37° C. Adherent cells were quantified using endogenous phosphatase after gently rinsing the well to remove unbound cells. Data is shown as means+/−SEM of triplicate experiments. *P=0.0101 and **P<0.0001 by t-test. c) Amino acid sequence in the α4 subunit that is critical for VCAM-1 and CS-1 binding is also critical for sPLA2-IIA binding. CHO cells that clonally express wt or mutant α4 (Irie, A. et al., Embo J, 14(22): 5550-5556 (1995)) were used for adhesion assays. Data is shown as means+/−SEM of triplicate experiments. Similar results were obtained using K562 cells expressing α4 mutants (not shown).
(§2) Other methods We performed docking simulation of interaction between sPLA2-IIA and integrin αvβ3 using the AutoDock3 as previously described (Mori, S. et al., J Biol Chem, in press (2008)). […]

[5] = tested on: mutant α4 subunit (Tyr-189 and Gly-190 to Ala); assay: Adhesion of CHO cells expressing wt or mutant α4 to sPLA2-IIA; format: cell-based
Description: as §1, §2

B1: wt sPLA2-IIA: Secretory phospholipase A2 group IIA, wild type, recombinant from bacteria BL21, refolded (protein)
chain: NLVNFHRMIKLTTGKEAALSYGFYGCHCGVGGRGSPKDATDRCCVTHDCCYKRLEKRGCGTKFLSYKFSNSGSRITCAKQDSCRSQLCECDKAAATCFARNKTTYNKKYQYYSNKHCRGSTPRC
modifications: left off: small tags and cut ends
Kd [1]: 200 nM
binding to soluble αvβ3 [2]: bound
proliferation of monocytic U937 cells [3]: induced robust proliferation
adhesion of α4-K562 cells to immobilized wt sPLA2-IIA [4]: better than mock-transfected K562 cells
binding of α4 mutants (Tyr-189 and Gly-190 to Ala) to sPLA2-IIA [5]: blocked binding
